For this assay, the target named is C22-pT peptide (HIV-1 gp41 MPER residues 662-683 with a C-terminal GCN4-pT isoleucine-zipper motif) (HIV-1). As to the kind of experiment: AUC.

Take “C22-pT peptide (HIV-1 gp41 MPER residues 662-683 with a C-terminal GCN4-pT isoleucine-zipper motif)”: the stoichiometry N (in general, a count of units in the complex or per binding partner) came to 3.

The values are drawn from publication PMC2765501.
